# According to IntAct's records for PubMed 21944579:
# B1: Low-density lipoprotein receptor-related protein 6 (Homo sapiens), O75581 (parent)
# chain: MGAVLRSLLACSFCVLLRAAPLLLYANRRDLRLVDATNGKENATIVVGGLEDAAAVDFVFSHGLIYWSDVSEEAIKRTEFNKTESVQNVVVSGLLSPDGLACDWLGEKLYWTDSETNRIEVSNLDGSLRKVLFWQELDQPRAIALDPSSGFMYWTDWGEVPKIERAGMDGSSRFIIINSEIYWPNGLTLDYEEQKLYWADAKLNFIHKSNLDGTNRQAVVKGSLPHPFALTLFEDILYWTDWSTHSILACNKYTGEGLREIHSDIFSPMDIHAFSQQRQPNATNPCGIDNGGCSHLCLMSPVKPFYQCACPTGVKLLENGKTCKDGATELLLLARRTDLRRISLDTPDFTDIVLQLEDIRHAIAIDYDPVEGYIYWTDDEVRAIRRSFIDGSGSQFVVTAQIAHPDGIAVDWVARNLYWTDTGTDRIEVTRLNGTMRKILISEDLEEPRAIVLDPMVGYMYWTDWGEIPKIERAALDGSDRVVLVNTSLGWPNGLALDYDEGKIYWGDAKTDKIEVMNTDGTGRRVLVEDKIPHIFGFTLLGDYVYWTDWQRRSIERVHKRSAEREVIIDQLPDLMGLKATNVHRVIGSNPCAEENGGCSHLCLYRPQGLRCACPIGFELISDMKTCIVPEAFLLFSRRADIRRISLETNNNNVAIPLTGVKEASALDFDVTDNRIYWTDISLKTISRAFMNGSALEHVVEFGLDYPEGMAVDWLGKNLYWADTGTNRIEVSKLDGQHRQVLVWKDLDSPRALALDPAEGFMYWTEWGGKPKIDRAAMDGSERTTLVPNVGRANGLTIDYAKRRLYWTDLDTNLIESSNMLGLNREVIADDLPHPFGLTQYQDYIYWTDWSRRSIERANKTSGQNRTIIQGHLDYVMDILVFHSSRQSGWNECASSNGHCSHLCLAVPVGGFVCGCPAHYSLNADNRTCSAPTTFLLFSQKSAINRMVIDEQQSPDIILPIHSLRNVRAIDYDPLDKQLYWIDSRQNMIRKAQEDGSQGFTVVVSSVPSQNLEIQPYDLSIDIYSRYIYWTCEATNVINVTRLDGRSVGVVLKGEQDRPRAVVVNPEKGYMYFTNLQERSPKIERAALDGTEREVLFFSGLSKPIALALDSRLGKLFWADSDLRRIESSDLSGANRIVLEDSNILQPVGLTVFENWLYWIDKQQQMIEKIDMTGREGRTKVQARIAQLSDIHAVKELNLQEYRQHPCAQDNGGCSHICLVKGDGTTRCSCPMHLVLLQDELSCGEPPTCSPQQFTCFTGEIDCIPVAWRCDGFTECEDHSDELNCPVCSESQFQCASGQCIDGALRCNGDANCQDKSDEKNCEVLCLIDQFRCANGQCIGKHKKCDHNVDCSDKSDELDCYPTEEPAPQATNTVGSVIGVIVTIFVSGTVYFICQRMLCPRMKGDGETMTNDYVVHGPASVPLGYVPHPSSLSGSLPGMSRGKSMISSLSIMGGSSGPPYDRAHVTGASSSSSSSTKGTYFPAILNPPPSPATERSHYTMEFGYSSNSPSTHRSYSYRPYSYRHFAPPTTPCSTDVCDSDYAPSRRMTSVATAKGYTSDLNYDSEPVPPPPTPRSQYLSAEENYESCPPSPYTERSYSHHLYPPPPSPCTDSS
# B2: Sclerostin (Homo sapiens), Q9BQB4 (parent)
# chain: MQLPLALCLVCLLVHTAFRVVEGQGWQAFKNDATEIIPELGEYPEPPPELENNKTMNRAENGGRPPHHPFETKDVSEYSCRELHFTRYVTDGPCRSAKPVTELVCSGQCGPARLLPNAIGRGKWWRPSGPDFRCIPDRYRAQRVQLLCPGGEAPRARKVRLVASCKCKRLTRFHNQSELKDFGTEAARPQKGRKPRPRARSAKANQAELENAY
# B3: Low-density lipoprotein receptor-related protein 6 (Homo sapiens), O75581 (parent)
# chain: B1 chain
# partner: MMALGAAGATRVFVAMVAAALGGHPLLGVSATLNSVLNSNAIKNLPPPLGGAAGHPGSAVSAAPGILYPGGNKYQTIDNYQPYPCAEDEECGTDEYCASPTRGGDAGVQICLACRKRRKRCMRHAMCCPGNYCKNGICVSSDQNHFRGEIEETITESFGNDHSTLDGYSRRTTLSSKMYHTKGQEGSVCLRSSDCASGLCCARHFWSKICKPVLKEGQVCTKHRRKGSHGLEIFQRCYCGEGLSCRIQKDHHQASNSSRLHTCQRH
# B4: Dickkopf-related protein 1 (Homo sapiens), O94907 (parent)
# chain: B3 partner
# Variants of: B1
# Conditions: with sost_human SOST
row,Variant,effect of a mutation on the interaction
1,R141M,disrupting interaction
2,D98Y,disrupting interaction

# The remaining lines, values ahead:
row,effect of a mutation on the interaction,Variant
1,disrupting interaction,N185S
2,disrupting interaction,A201V
3,disrupting interaction,A229T

# Variants of: B2
# Conditions: with lrp6_human LRP6, O75581
row,Variant,effect of a mutation on the interaction
1,N117A,decreasing interaction
2,I119E,decreasing interaction

# Variants of: B3
# Conditions: with dkk1_human DKK1, O94907
row,Variant,effect of a mutation on the interaction
1,A229T,disrupting interaction
2,A201V,disrupting interaction
3,D98Y,disrupting interaction
4,R141M,disrupting interaction
5,N185S,disrupting interaction

# Variants of: B4
# Conditions: with lrp6_human LRP6, O75581
row,Variant,effect of a mutation on the interaction
1,N40A,decreasing interaction
2,I42E,disrupting interaction

# Variants of: B4
# Conditions: with lrp6_human LRP6, O75581
# Remark: another data set of the same source
row,Variant,effect of a mutation on the interaction
1,H204E,disrupting interaction
2,K211E,disrupting interaction
